From patent US11661461B2, “Phospho-Rab antibodies, assays and methods of use thereof” (Denali Therapeutics Inc., priority 2017, dated 2023)
Residue numbers refer to the chain shown, from its start. “Also recorded” adds a separate entry of the source. Blank lines part the entries; values can stand above or below the molecule they belong to.

Experiments:
LRRK2 = assay: 7 days of dosing in cynomolgus monkeys, pT73-Rab10 and pS935-LRRK2 western blot; assay type: in vivo, cynomolgus monkey; conditions: 45 mg/kg daily
Protocol: Phosphorylated Rab10 was also tested in cynomolgus monkey lung and kidney tissue following 7 days of dosing with a LRRK2 inhibitor. Cynomolgus monkeys were dosed daily with the LRRK2 Inhibitor C at a dose of 45 mg/kg. […] Signals from dosed groups were normalized to vehicle control group. Data were presented as mean with SEM.

[1] = biological target: T1, endogenous phosphorylated Rab10 in human PBMC (Homo sapiens, UniProt P61026); assay: Western blot of human PBMC with anti-pT73-Rab10 antibodies; assay type: binding; conditions: for detection of endogenous phosphorylated Rab10 signals in human PBMC by western blot: antibody at 1 ug/ml; for Western blot Human PBMC Ratio of DMSO/LRRK2 inhibitor A (mean ± SEM): band intensity normalized with Actin control for each of DMSO and LRRK2 inhibitor A, antibody 1 ug/ml
T1 construct: Strong endogenous phosphorylated Rab10 or phosphorylated Rab8a in human PBMC; host or cells: human PBMC
T1 sequence (P61026 1-200): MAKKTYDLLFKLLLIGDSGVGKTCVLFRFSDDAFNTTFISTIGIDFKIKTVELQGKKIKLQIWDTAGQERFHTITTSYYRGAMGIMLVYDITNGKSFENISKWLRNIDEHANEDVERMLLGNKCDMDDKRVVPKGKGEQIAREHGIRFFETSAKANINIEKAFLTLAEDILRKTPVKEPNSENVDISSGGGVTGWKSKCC

[2] = biological target: T2, phosphorylated Rab10 in lysates of HEK cells overexpressing LRRK2 (Homo sapiens, UniProt P61026); assay: Sandwich ELISA (diagnostic), HEK cells overexpressing LRRK2; assay type: binding; conditions: for Sandwich ELISA (diagnostic), Ratio: DMSO / LRRK2 inhibitor A RLU; for Sandwich ELISA (diagnostic) HEK cells overexpressing LRRK2, DMSO (RLU mean ± SD): DMSO treated cells; for Sandwich ELISA (diagnostic) HEK cells overexpressing LRRK2, LRRK2 inhibitor A (RLU mean ± SD): cells treated with LRRK2 inhibitor A
T2 construct: expressed in transfected cells; host or cells: HEK cells overexpressing LRRK2
T2 sequence (P61026 1-200): T1 sequence (P61026 1-200)
Protocol: Sandwich ELISA (Diagnostic) with Anti-Phospho-Rab10 Antibody as the Capture Antibody:
ELISA plates were prepared by coating white Nunc MaxiSorp 384 well plates (Thermo Fisher #460372/Sigma #P6491) with capture antibody for 1 hour at room temperature on a shaking platform. The capture antibody was purified anti-phospho-Rab10 clone 19-4 diluted to 1 ug/mL in carbonate-bicarbonate buffer, and 15 uL/well of coating solution was added to the plate before incubation. Plates were then washed 3× with TBST on a BioTek plate washer. For all subsequent blocking/incubation steps, Pierce Starting Block T20 (TBS) was used (Thermo Fisher #37543). Plates were blocked […] in this solution using 80 uL/well and washed 3× as before. Afterwards samples of cell lysates were added (neat with no dilution) using 30 uL/well and incubated 1 hour at room temperature on a shaking platform. After another 3× wash detection antibody (Creative Diagnostics DCABH 13141, or Abcam, ab104859, 2 ug/mL) was added using 30 uL/well. After 60 minute incubation at room temperature and washing 3×, the secondary anti-species conjugate was added (anti-rabbit HRP antibody (Jackson ImmunoResearch 111-035-144) diluted 1:20000 in assay diluent) at 30 uL/well. After a 60 minute incubation, plates were washed 3× as before. The HRP substrate (Supersignal ELISA Femto HRP substrate—Thermo Fisher #37075) was prepared during this time by mixing both components and equilibrating to room temperature. 50 uL/well of substrate was added to plates, which then were covered and briefly incubated for 1-2 minutes on a shaker platform. Afterwards plates were read on the Synergy plate reader to measure relative light units (RLU).
Sandwich ELISA (Diagnostic) with Anti-Rab10 (Total) Antibody as the Capture Antibody:
ELISA plates were prepared by coating white Nunc MaxiSorp 384 well plates (Thermo Fisher #460372/Sigma # P6491) with capture antibody overnight at 4° C. on a shaking platform. The capture antibodies (anti-Rab10 antibody from either Creative Diagnostics, DCABH-13141, or Abcam, ab104859) were diluted to […] (or 1:100 if the concentration not known) in carbonate-bicarbonate buffer, and 15 uL/well of coating solution was added to the plate before incubation. After this plates were washed 3× with TBST on a BioTek plate washer. For all subsequent blocking/incubation steps, Pierce Starting Block (TBS) (no Tween added) was used (Thermo Fisher #37542). Plates were blocked for 1 hour at room temperature in this solution using 80 uL/well and washed 3× as before. Afterwards samples were added (with lysates being diluted 1:20 in the assay diluent) using 30 uL/well and incubated 2 hours at room temperature on a shaking platform. After another 3× wash detection antibodies were added (diluted to 1 ug/mL for purified antibodies or 1:2 for supernatants) using 30 uL/well. After 90 minute incubation at room temperature and washing 3× the secondary anti-species conjugate was added (anti-rabbit HRP antibody (Jackson ImmunoResearch 111-035-144) diluted 1:20000 in assay diluent) at 30 uL/well. After a 45 minute incubation plates were washed 3× as before. The HRP substrate (Supersignal ELISA Femto HRP substrate—Thermo Fisher #37075) was prepared during this time by mixing both components and equilibrating to room temperature. 50 uL/well of substrate was added to plates, which then were covered and briefly incubated for 1-2 minutes on a shaker platform. Afterwards plates were read on the Synergy plate reader to measure relative light units (RLU).

[3] = biological target: T3, endogenous phosphorylated Rab8a in human PBMC (Homo sapiens, UniProt P61006); assay: Western blot of human PBMC with anti-pT72-Rab8a antibodies; assay type: binding; conditions: for detection of endogenous phosphorylated Rab8a signals in human PBMC by western blot: antibody at 1 ug/ml; for Western blot Human PBMC Ratio of DMSO/LRRK2 inhibitor A (mean ± SEM): band intensity normalized with Actin control for each of DMSO and LRRK2 inhibitor A, antibody 1 ug/ml
T3 construct: Strong endogenous phosphorylated Rab10 or phosphorylated Rab8a in human PBMC; host or cells: human PBMC
T3 sequence (P61006 1-207): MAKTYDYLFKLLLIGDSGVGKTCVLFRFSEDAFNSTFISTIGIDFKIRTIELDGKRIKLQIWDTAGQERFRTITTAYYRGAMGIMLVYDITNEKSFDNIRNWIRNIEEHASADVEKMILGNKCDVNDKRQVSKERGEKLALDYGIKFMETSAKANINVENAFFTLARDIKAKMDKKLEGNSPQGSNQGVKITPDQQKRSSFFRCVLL

pT73-Rab10 = biological target: T4, pT73-Rab10 (Homo sapiens, UniProt P61026); assay: Phospho-Rab10 MSD assay (clone 19-4 as capture antibody); assay type: binding; conditions: anti-total Rab10 antibody for detection
T4 construct: Strong endogenous phosphorylated Rab10 or phosphorylated Rab8a in human PBMC; host or cells: human PBMC
T4 sequence (P61026 1-200): T1 sequence (P61026 1-200)

[4] = normalized to actin and vehicle control group, mean with SEM, N = 4
[5] = normalized to vinculin and vehicle control group, mean with SEM, N = 4

Molecule: Cc1nn(C(C)(C)c2ncn(C)n2)cc1Nc1ncc(C(F)(F)F)c(C2CC2)n1 [LRRK2 Inhibitor C, 4-cyclopropyl-N-(3-methyl-1-(2-(1-methyl-1H-1,2,4-triazol-3-yl)propan-2-yl)-1H-pyrazol-4-yl)-5-(trifluoromethyl)pyrimidin-2-amine]
- dephosphorylation of pT73-Rab10 and pS935-LRRK2 (LRRK2; lung and kidney): significant dephosphorylation
- pT73-Rab10, Kidney (LRRK2; [4]): 0.547 ± 0.125
- pT73-Rab10, Lung (LRRK2; [4]): 0.189 ± 0.0562
- pS935-LRRK2, Kidney (LRRK2; [5]): 0.0563 ± 0.0147
- pS935-LRRK2, Lung (LRRK2; [5]): 0.102 ± 0.0215

B2: Clone 20: anti-phosphorylated (pT72) Rab8a rabbit monoclonal antibody; VH SEQ ID NO:63, VL SEQ ID NO:66 (antibody, V domains shown)
VH: METGLRWLLLVAVLKGVQCQSVEESGGRLVTPGTPLTLTCTVSGFSLSSYAMGWVRQAPGEGLEYFGIINTGGSAYYTNWAKGRFTISRTSTTVHLKITSPTTEDTATYFCARIAGDTRYYGMDPWGPGTLVTVSS
VL: MDTRAPTQLLGLLLLWLPGATFAAVLTQTPSPVSAAVGGTVSISCQSSKSVRNNNYLAWYQQKPGQPPKLLIYGASTLASGVPSRFKGSGSGTQFTLTISDVQCDDAATYYCAGGYDGGSDDAFGGGTEVVVK
- detection of endogenous phosphorylated Rab8a signals in human PBMC by western blot ([3]; listed as 20): detected endogenous phosphorylated Rab signals
- Western blot Human PBMC Ratio of DMSO/LRRK2 inhibitor A (mean ± SEM) [3]: 3.50 ± 0.52

B5: Clone 19-4: anti-phosphorylated (pT73) Rab10 rabbit monoclonal antibody; VH SEQ ID NO:17, VL SEQ ID NO:18 (antibody, V domains shown)
VH: METGLRWLLLVAVLKGVQCQSVEESGGRLVTPGTPLTLTCTVSGFSLSSYAMVWVRQAPGKGLEYIGLISRSGVTYYATWAKGRFTISKASTTVDLKIASPTTGDTATYFCVRDYDSAGWSGFTIWGPGTLVTVSA
VL: MDTRAPTQLLGLLLLWLPGAICDPVMTQTPSSTSAAVGGTVTINCQSSQSVYGNNYLSWYQQKPGQPPKLLIYKASTLASGVPSRFVGSGSGTQFTLTISDLECDDAATYYCAGAASDTRFFGGGTELVVN
- pRab10 signals in phospho-Rab10 MSD assay (pT73-Rab10; human A549 cells, listed as 19-4): showed pRab10 signals
- pRab10 signals in phospho-Rab10 MSD assay (pT73-Rab10; human PBMCs): showed pRab10 signals
- detection of endogenous phosphorylated Rab10 signals in human PBMC by western blot ([1]; listed as 19-4): detected endogenous phosphorylated Rab signals; also recorded: Detection of phosphorylated Rab10
- Western blot Human PBMC Ratio of DMSO/LRRK2 inhibitor A (mean ± SEM) [1]: 2.95 ± 0.68
- Sandwich ELISA (diagnostic), Ratio [2]: 37.40
- Sandwich ELISA (diagnostic) HEK cells overexpressing LRRK2, DMSO (RLU mean ± SD) [2]: 80524 ± 7835 RLU
- Sandwich ELISA (diagnostic) HEK cells overexpressing LRRK2, LRRK2 inhibitor A (RLU mean ± SD) [2]: 2153 ± 774 RLU

More lines, main results first:

- Western blot Human PBMC Ratio of DMSO/LRRK2 inhibitor A (mean ± SEM) [1]: 2.48 ± 0.31
- Sandwich ELISA (diagnostic), Ratio [2]: 33.74
- Sandwich ELISA (diagnostic) HEK cells overexpressing LRRK2, DMSO (RLU mean ± SD) [2]: 473585 ± 44210 RLU
- Sandwich ELISA (diagnostic) HEK cells overexpressing LRRK2, LRRK2 inhibitor A (RLU mean ± SD) [2]: 14037 ± 1627 RLU
B1: Clone 81-11: anti-phosphorylated (pT73) Rab10 rabbit monoclonal antibody; VH SEQ ID NO:21, VL SEQ ID NO:25 (antibody, V domains shown)
VH: METGLRWLLLVAVLKGVQCQSVEESGGRLVTPGTPLTLTCTVSGFSLSSYAMSWVRQAPGKGLEYIGLFNDVGIAYYANWAKGRFTFSKTSTTVDLKITSPTTEDTATYFCARVGGTTRVYGMDLWGPGTLVTVSS
VL: B2 VL with N53H, A58S, P67R, K87S, Q94E, D117S, S120G, K133E
- detection of endogenous phosphorylated Rab10 signals in human PBMC by western blot [1]: detected endogenous phosphorylated Rab signals

- Western blot Human PBMC Ratio of DMSO/LRRK2 inhibitor A (mean ± SEM) [3]: 2.26 ± 0.12
B3: Clone 86-9: anti-phosphorylated (pT72) Rab8a rabbit monoclonal antibody; VH SEQ ID NO:81, VL SEQ ID NO:85 (antibody, V domains shown)
VH: METGLRWLLLVAVLKGVQCQSVEESGGRLVTPGTPLTLTCTVSGFSLSSYYITWVRQAPGKGLEWLGIMNAGTTVHYANWVKGRFAISKTSTTVDLKITSPTTEDTATYFCARARNSVWMDIWGPGTLVTVSL
VL: MDTRAPTQLLGLLLLWLPGATLAAVLTQTPSPVSGAVGGSVTVNCQSDKSVYRDNLAWYQQKPGQPPKLLIYKASTLASGVPSRFRGSGAGTQFTLTISDVQCDDAATYFCAGGYSSDSDTAFGGGTEVVVK
- detection of endogenous phosphorylated Rab8a signals in human PBMC by western blot [3]: detected endogenous phosphorylated Rab signals

- Western blot Human PBMC Ratio of DMSO/LRRK2 inhibitor A (mean ± SEM) [3]: 2.61 ± 0.42
B4: Clone 71-3: anti-phosphorylated (pT72) Rab8a rabbit monoclonal antibody; VH SEQ ID NO:71, VL SEQ ID NO:75 (antibody, V domains shown)
VH: METGLRWLLLVAVLKGVQCQSVEESGGRLVTPGTPLTLTCTASGFSLNVYYMTWVRQAPGKGLDWIGIINTDITVHYANWARGRFTISKTSTTVDLKITSPTTEDTATYFCARARNSAWMDIWGPGTLVTVSL
VL: MDTRAPTQLLGLLLLWLPGATFAAVLTQTPSPVSAAVGGTVTINCQSDWSVYNNNLAWYQHKPGQPPKLLIYKTSTLASGVPSRFRGSGSGTQFTLTISDVQCDDTATYYCAGGYYRDSDTAFGGGTEVVVK
- detection of endogenous phosphorylated Rab8a signals in human PBMC by western blot [3]: detected endogenous phosphorylated Rab signals
